# From patent US20140072613A1, “Compositions and Methods for Treating Cutaneous Scarring” (priority 2012, published 2014)
# How the values were obtained:
# Experiment in all cases: cell-based or functional assay
# FGFR4(h) (human) = FGFR4(h) (human) (UniProt P22455)
# PKBβ(h) (human) = PKBβ(h) (human) (UniProt P31751)
# Met(D1246H)(h) (human) = Met(D1246H)(h) (human) (UniProt P08581)
# CDK1/cyclinB(h) (human) = CDK1/cyclinB(h) (human) (UniProt P06493)
# JNK3(h) (human) = JNK3(h) (human) (UniProt P53779)
# ZIPK(h) (human) = ZIPK(h) (human) (UniProt O43293)
# 6SK3β(h) (human) = 6SK3β(h) (human) (UniProt P49841)
# IRR(h) (human) = IRR(h) (human) (UniProt P14616)
# Met(D1246N)(h) (human) = Met(D1246N)(h) (human) (UniProt P08581)
# VRK2(h) (human) = VRK2(h) (human) (UniProt Q86Y07)
# ZAP-70(h) (human) = ZAP-70(h) (human) (UniProt P43403)
# MLCK(h) (human) = target: MLCK(h) (human)
# Abl(M351T)(h) (human) = Abl(M351T)(h) (human) (UniProt P00519)
# MKK6(h) (human) = MKK6(h) (human) (UniProt P52564)
# cKit(h) (human) = cKit(h) (human) (UniProt P10721)
# Src(T341M)(h) (human) = Src(T341M)(h) (human) (UniProt P12931)
# PKCα(h) (human) = PKCα(h) (human) (UniProt P17252)
# EphA4(h) (human) = EphA4(h) (human) (UniProt P54764)
# FGFR1(h) (human) = FGFR1(h) (human) (UniProt P11362)
# c-RAF(h) (human) = c-RAF(h) (human) (UniProt P04049)
# PKG1β(h) (human) = target: T1, PKG1β(h) (human) (UniProt Q13976)
# T1 sequence (looked up): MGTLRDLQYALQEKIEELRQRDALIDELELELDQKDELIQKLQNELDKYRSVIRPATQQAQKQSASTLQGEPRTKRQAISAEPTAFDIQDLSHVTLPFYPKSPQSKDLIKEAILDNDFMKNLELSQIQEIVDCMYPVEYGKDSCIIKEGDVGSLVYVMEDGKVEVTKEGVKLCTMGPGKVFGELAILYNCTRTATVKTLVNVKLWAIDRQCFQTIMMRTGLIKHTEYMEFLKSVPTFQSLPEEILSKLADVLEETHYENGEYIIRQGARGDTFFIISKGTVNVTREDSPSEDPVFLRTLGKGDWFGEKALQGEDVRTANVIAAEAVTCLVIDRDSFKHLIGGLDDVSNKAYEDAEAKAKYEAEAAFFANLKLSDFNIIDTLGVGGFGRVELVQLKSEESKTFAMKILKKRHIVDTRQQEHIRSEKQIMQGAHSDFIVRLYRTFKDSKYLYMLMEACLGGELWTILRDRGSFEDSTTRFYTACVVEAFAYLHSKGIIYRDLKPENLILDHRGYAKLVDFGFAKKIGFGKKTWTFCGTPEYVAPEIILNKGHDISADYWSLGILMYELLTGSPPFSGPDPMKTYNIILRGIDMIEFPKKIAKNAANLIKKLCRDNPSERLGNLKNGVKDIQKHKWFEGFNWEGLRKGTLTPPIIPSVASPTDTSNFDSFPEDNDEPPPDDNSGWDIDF
# FGFR2(h) (human) = FGFR2(h) (human) (UniProt P21802)
# [1] = target: IGF-1R(h), activated (human) (UniProt P08069)
# PKGη(h) (human) = target: PKGη(h) (human)
# ARK5(h) (human) = target: T2, ARK5(h) (human) (UniProt O60285)
# T2 sequence (looked up): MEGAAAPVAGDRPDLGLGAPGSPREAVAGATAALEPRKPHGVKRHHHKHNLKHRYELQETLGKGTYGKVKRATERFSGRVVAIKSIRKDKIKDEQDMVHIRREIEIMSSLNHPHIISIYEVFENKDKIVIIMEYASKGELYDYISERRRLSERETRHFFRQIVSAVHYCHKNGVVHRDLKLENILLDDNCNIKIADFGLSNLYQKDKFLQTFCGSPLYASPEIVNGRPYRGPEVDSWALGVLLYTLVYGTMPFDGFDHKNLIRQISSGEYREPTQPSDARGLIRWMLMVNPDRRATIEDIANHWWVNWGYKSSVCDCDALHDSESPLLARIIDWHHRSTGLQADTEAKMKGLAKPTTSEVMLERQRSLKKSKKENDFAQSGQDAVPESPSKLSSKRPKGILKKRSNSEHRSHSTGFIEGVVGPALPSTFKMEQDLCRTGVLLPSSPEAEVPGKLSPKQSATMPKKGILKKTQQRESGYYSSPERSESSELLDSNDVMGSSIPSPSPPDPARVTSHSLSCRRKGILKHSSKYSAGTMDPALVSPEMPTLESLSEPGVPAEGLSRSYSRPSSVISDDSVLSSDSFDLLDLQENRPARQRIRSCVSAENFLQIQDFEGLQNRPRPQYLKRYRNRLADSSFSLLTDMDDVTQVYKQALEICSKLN
# Ron(h) (human) = Ron(h) (human) (UniProt Q04912)
# ASK1(h) (human) = ASK1(h) (human) (UniProt Q99683)
# Sequence of ZIPK(h) (human) (O43293 whole entry): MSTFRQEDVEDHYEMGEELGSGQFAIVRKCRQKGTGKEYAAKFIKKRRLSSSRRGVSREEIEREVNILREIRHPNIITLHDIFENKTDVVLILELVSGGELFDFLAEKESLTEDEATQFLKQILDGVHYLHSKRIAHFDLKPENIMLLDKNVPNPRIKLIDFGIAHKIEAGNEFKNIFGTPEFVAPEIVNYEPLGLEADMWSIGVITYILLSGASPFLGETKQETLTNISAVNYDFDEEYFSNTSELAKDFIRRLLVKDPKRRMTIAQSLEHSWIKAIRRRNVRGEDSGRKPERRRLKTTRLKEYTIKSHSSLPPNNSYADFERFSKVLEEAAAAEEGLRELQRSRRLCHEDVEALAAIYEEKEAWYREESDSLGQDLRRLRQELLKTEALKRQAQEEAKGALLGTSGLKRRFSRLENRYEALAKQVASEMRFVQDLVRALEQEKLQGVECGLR
# Sequence of EphA4(h) (human) (P54764 570-986 limits assumed): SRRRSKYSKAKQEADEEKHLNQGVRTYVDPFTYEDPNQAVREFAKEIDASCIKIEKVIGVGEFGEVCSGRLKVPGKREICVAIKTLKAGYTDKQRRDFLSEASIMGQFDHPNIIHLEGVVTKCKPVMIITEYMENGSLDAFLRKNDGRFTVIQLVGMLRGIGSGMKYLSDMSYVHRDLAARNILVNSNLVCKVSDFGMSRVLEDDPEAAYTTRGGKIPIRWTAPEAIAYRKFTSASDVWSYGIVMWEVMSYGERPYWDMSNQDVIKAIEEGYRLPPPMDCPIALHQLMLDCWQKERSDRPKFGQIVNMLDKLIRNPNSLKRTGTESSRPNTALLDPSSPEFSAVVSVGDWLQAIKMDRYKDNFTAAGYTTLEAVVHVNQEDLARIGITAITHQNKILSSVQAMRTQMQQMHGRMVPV
# Sequence of FGFR1(h) (human) (P11362 456-765 limits assumed): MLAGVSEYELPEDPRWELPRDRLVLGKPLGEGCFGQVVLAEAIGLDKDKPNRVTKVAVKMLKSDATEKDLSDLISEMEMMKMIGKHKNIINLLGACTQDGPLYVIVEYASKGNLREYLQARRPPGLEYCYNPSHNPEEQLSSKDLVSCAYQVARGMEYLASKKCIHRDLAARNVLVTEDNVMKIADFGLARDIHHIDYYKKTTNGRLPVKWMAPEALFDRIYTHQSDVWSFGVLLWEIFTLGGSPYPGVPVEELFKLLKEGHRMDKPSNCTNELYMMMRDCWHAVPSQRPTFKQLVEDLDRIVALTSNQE
# Sequence of FGFR2(h) (human) (P21802 456-770 limits assumed): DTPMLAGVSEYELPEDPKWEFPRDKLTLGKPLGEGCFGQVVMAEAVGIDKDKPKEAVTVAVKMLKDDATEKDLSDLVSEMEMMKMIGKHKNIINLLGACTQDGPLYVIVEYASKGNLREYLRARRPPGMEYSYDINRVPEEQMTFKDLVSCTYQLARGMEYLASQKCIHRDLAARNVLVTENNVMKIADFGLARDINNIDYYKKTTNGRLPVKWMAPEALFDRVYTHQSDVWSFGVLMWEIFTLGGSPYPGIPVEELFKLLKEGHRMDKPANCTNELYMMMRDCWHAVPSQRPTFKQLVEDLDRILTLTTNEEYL
# Sequence of JNK3(h) (human) (P53779 whole entry): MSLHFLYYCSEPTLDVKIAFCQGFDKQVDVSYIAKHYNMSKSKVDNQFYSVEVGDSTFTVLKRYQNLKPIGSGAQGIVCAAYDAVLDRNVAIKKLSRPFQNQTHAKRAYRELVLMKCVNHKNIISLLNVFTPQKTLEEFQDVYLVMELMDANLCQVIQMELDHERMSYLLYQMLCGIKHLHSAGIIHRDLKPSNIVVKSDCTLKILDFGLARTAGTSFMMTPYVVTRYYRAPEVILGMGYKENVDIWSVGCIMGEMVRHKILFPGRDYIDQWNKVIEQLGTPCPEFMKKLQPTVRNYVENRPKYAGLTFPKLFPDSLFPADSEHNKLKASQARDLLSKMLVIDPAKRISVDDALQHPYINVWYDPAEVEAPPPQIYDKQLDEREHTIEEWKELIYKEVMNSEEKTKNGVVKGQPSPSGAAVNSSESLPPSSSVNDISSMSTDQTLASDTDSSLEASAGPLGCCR
# Sequence of IGF-1R(h), activated (human) (P08069 959-1367 limits assumed): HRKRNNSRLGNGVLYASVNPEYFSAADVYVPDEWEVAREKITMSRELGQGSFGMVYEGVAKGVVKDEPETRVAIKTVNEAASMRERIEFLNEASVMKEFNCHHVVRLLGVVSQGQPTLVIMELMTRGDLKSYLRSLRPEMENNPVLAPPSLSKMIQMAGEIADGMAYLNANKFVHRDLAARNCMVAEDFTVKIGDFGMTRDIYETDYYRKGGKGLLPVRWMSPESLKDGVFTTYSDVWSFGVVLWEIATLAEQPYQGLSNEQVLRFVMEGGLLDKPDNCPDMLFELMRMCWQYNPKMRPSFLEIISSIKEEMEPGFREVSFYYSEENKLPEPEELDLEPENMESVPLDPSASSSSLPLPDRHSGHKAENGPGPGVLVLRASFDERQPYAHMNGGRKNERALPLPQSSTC
# Sequence of Abl(M351T)(h) (human) (P00519 27-1130 M351T limits assumed): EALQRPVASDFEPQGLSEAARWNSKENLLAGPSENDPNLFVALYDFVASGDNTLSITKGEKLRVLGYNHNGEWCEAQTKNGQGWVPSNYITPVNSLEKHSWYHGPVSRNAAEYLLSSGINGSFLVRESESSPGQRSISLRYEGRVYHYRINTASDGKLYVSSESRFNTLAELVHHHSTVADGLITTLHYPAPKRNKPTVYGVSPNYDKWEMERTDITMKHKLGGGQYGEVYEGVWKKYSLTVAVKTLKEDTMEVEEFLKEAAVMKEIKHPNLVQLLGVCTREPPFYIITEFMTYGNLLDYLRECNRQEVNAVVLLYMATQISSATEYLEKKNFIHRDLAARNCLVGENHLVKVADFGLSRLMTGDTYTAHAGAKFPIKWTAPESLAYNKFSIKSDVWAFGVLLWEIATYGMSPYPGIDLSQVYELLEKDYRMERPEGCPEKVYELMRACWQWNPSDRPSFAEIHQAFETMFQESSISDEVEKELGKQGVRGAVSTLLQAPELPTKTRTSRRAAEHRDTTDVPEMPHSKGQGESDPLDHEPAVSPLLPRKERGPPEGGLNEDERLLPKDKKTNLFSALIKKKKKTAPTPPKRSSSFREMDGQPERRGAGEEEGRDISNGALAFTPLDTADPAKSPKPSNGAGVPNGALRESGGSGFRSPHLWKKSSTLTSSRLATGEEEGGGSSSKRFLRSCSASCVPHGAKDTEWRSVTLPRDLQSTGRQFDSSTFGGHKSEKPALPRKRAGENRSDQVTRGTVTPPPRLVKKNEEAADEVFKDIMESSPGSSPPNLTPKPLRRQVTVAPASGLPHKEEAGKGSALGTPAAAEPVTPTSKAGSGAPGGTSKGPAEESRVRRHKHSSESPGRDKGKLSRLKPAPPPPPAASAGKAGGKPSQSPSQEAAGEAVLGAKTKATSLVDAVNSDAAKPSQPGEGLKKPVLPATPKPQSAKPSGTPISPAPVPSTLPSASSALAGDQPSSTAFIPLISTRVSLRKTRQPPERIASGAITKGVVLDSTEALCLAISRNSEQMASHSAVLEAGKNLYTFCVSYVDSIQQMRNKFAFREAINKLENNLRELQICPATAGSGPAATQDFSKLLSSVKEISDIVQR
# Sequence of VRK2(h) (human) (Q86Y07 whole entry): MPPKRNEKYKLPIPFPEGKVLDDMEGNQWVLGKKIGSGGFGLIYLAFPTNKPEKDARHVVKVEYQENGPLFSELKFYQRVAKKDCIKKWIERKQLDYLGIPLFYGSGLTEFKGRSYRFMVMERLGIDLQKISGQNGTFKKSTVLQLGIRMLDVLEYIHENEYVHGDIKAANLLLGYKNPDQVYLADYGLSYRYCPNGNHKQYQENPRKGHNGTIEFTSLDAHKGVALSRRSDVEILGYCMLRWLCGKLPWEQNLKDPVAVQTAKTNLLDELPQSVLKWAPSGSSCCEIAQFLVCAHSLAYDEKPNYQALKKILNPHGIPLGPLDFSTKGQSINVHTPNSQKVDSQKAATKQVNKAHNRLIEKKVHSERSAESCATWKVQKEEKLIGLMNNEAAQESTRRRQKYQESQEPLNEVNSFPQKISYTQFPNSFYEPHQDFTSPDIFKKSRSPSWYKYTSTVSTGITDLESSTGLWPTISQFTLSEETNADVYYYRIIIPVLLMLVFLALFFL
# Sequence of ZAP-70(h) (human) (P43403 whole entry): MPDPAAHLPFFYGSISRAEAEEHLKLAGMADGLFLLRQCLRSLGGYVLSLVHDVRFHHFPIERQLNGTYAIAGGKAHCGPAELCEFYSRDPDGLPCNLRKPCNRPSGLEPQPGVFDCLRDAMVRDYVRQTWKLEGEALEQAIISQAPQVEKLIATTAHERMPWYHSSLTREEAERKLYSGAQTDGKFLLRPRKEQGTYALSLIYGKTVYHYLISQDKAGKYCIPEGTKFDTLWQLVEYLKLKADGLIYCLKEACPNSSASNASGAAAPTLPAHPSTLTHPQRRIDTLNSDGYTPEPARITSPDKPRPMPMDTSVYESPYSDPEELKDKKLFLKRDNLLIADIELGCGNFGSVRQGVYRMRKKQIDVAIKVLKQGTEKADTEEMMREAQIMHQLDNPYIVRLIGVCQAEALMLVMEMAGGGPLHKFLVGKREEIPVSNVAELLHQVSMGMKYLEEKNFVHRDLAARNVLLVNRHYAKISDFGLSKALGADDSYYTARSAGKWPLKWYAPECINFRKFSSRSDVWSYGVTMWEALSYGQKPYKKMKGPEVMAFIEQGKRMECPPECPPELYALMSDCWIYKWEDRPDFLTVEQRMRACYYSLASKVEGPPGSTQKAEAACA
# Sequence of FGFR4(h) (human) (P22455 460-802 limits assumed): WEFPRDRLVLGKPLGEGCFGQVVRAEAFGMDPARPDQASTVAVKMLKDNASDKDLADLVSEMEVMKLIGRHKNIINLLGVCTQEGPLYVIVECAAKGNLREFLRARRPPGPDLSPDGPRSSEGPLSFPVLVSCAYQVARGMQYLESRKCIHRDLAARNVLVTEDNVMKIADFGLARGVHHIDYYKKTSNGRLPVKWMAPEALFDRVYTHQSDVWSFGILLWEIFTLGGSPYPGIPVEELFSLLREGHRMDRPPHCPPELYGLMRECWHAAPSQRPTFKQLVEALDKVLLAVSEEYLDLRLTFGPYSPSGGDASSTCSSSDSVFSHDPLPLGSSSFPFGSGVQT
substance,measurement,setting,value
MMI-0500 (peptide),"% activity, 100 µM",FGFR4(h) (human),3%
same,"% activity, 100 µM",PKBβ(h) (human),21%
same,"% activity, 100 µM",Met(D1246H)(h) (human),150%
same,"% activity, 100 µM",CDK1/cyclinB(h) (human),57%
same,"% activity, 100 µM",JNK3(h) (human),171%
same,"% activity, 100 µM",ZIPK(h) (human),1%
same,"% activity, 100 µM",6SK3β(h) (human),238%
same,"% activity, 100 µM",IRR(h) (human),10%
same,"% activity, 100 µM",Met(D1246N)(h) (human),90%
same,"% activity, 100 µM",VRK2(h) (human),169%
same,"% activity, 100 µM",ZAP-70(h) (human),1%
same,"% activity, 100 µM",MLCK(h) (human),0%
same,"% activity, 100 µM",Abl(M351T)(h) (human),61%
same,"% activity, 100 µM",MKK6(h) (human),18%
same,"% activity, 100 µM",cKit(h) (human),45%
same,"% activity, 100 µM",Src(T341M)(h) (human),59%
same,"% activity, 100 µM",PKCα(h) (human),3%
same,"% activity, 100 µM",EphA4(h) (human),48%
same,"% activity, 100 µM",FGFR1(h) (human),18%
same,"% activity, 100 µM",c-RAF(h) (human),19%
same,"% activity, 100 µM",PKG1β(h) (human),24%
same,"% activity, 100 µM",FGFR2(h) (human),12%
same,"% activity, 100 µM",[1],45%
same,"% activity, 100 µM",PKGη(h) (human),45%
same,"% activity, 100 µM",ARK5(h) (human),20%
same,"% activity, 100 µM",Ron(h) (human),46%
same,"% activity, 100 µM",ASK1(h) (human),-4%
